Data: patent publication US20180051064A1 (AJOU UNIVERSITY INDUSTRY ACADEMIC COOPERATION FOUNDATION, published 2018)
Blank lines part the entries; values can stand above or below the binder they belong to. Where no end group is shown, it is not given here. Fc = antibody heavy-chain constant region Fc (hinge-CH2-CH3)

Tests used:
[1] = target: T1, NRP1-b1b2 (273-586) protein (UniProt O14786 273-586); assay: SPR; KD on NRP2-b1b2 divided by KD on NRP1-b1b2
T1 construct: range 273-586; Prepared according to Appleton et al. 2007; Biotinylated (Sulfo-NHS-LC-biotin) for the yeast display FACS; unlabelled in ELISA and SPR; also called neuropilin-1 b1b2 protein; biotinylated NRP1-b1b2
Protocol: (§1) Specifically, each of NRP1 and NRP2 b1b2 proteins was diluted in 10 mM Na-acetate buffer (pH 4.0), and immobilized on a CM5 sensor chip (GE healthcare, USA) at about 1000 response units (RU). […] After binding and dissociation analysis, regeneration of the CM5 chip was performed by flushing buffer (20 mM NaOH, 1M NaCl, pH10.0) at a flow rate of 30 μl/min for 1 minute.

[2] = target: T1, NRP1-b1b2 (273-586) protein; assay: SPR; lower end tied to Fc-TPP8 by Table 5 (65.8)
Protocol: as §1

[3] = target: T1, NRP1-b1b2 (273-586) protein; assay: ELISA on immobilised NRP1-b1b2, absorbance at 405 nm [A]
Protocol: (§2) 1 μg of each of NRP1-b1b2 (273-586) protein, NRP2-b1b2 (275-595) protein and the control group VEGFR2 (46-753) was immobilized in each well of a 96-well EIA/RIA plate (COSTAR Corning In., USA) at room temperature for 1 hour, and then washed three times with 0.1% PBST (0.1% Tween20, pH 7.4, 137 mM NaCl, 10 mM Phosphate, 2.7 mM KCl, SIGMA-ALDRICH co., USA) for 10 minutes. After binding with 5% skim milk (5% Skim milk, pH 7.4, 137 mM NaCl, 10 mM Phosphate, 2.7 mM KCl, SIGMA-ALDRICH co., USA) for 1 hour, each well was washed three times with 0.1% PBST (0.1% Tween20, pH 7.4, 137 mM NaCl, 10 mM Phosphate, 2.7 mM KCl, SIGMA-ALDRICH co., USA) for 10 minutes. […] Each well was bound with AP-conjugated anti-biotin antibody (alkaline phosphatase-conjugated anti-biotin mAb, Sigma, USA), and then reacted with pNPP ([…], SIGMA-ALDRICH co., USA), and the absorbance at 405 nm was measured.

[4] = target: T2, NRP2-b1b2 (275-595) protein (UniProt O60462 275-595); assay: SPR (Biacore 2000), NRP2-b1b2 immobilised on CM5 chip
T2 construct: range 275-595; also called neuropilin-2 b1b2 protein
T2 sequence (looked up): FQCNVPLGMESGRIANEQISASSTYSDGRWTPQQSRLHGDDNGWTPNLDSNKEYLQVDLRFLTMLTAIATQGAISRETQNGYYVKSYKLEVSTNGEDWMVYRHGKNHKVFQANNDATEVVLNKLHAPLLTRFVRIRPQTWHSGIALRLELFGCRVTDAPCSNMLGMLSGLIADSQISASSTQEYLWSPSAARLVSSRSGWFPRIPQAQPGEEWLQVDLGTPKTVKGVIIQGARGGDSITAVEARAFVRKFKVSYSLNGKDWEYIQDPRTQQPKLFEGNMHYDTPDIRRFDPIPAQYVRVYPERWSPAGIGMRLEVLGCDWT
Protocol: as §1

[5] = target: T1, NRP1-b1b2 (273-586) protein; assay: SPR (Biacore 2000), NRP1-b1b2 immobilised on CM5 chip
Protocol: as §1

[6] = target: T1, NRP1-b1b2 (273-586) protein; assay: competitive ELISA on NRP1-b1b2; TPP11 peptide varied, blocked ligand RPARPAR [10 µM], relative binding (%) [B]
[7] = target: T1, NRP1-b1b2 (273-586) protein; assay: ELISA, biotinylated peptide (100 nM) on coated NRP1-b1b2
Protocol: as §2

T1 sequence (O14786 273-586 limits assumed, form in doubt): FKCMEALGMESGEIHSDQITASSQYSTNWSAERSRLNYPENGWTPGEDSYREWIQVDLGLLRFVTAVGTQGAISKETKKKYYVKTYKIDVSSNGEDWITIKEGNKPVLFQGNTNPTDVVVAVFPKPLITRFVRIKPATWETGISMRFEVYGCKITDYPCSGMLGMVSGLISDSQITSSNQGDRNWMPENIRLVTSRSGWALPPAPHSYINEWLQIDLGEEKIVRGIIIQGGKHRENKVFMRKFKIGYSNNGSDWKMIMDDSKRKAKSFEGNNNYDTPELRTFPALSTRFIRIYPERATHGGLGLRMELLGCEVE

- Binding Affinity Ratio [(KD for NRP2)/KD for NRP1)] [1]: 65.8
- fold higher affinity for NRP1 than for NRP2 [2]: 60 fold
- EC50 (read off the curve) [3]: ~3 nM
- Kd [4]: 254 nM
- Kd [5]: 3.85 nM
B1: Fc-TPP8 fusion protein (Fc fusion, not shown: a dimerising Fc or GST; small tags and cut ends)
chain: Fc-GGGGSGGGGSGGGGSHTPGIATRTPR
modifications: also: Fc letters not given here, disulfide-linked homodimer through Fc hinge
notes: Expressed in HEK293-F and purified on Protein A; disulfide-linked dimer

- IC50 (read off the curve) [6]: ~2000 nM
- fold lower affinity than Fc-TPP11 [7]: 100 fold
B2: synthetic peptide TPP11 not fused to Fc (peptide)
peptide: HTPGNSKPTRTPRR
modifications: also: biotinylated for ELISA, position not given here
notes: also called TPP11 peptide; synthesized TPP11 peptide

- Binding Affinity Ratio [(KD for NRP2)/KD for NRP1)] [1]: 625
- EC50 (read off the curve) [3]: ~0.5 nM
- Kd [4]: 1130 nM
- Kd [5]: 1.81 nM
B3: Fc-TPP1 fusion protein (Fc fusion, not shown: a dimerising Fc or GST; small tags and cut ends)
chain: Fc-GGGGSGGGGSGGGGSHTPGNSNQFVLTSTRPPR
modifications: also: Fc letters not given here, disulfide-linked homodimer through Fc hinge
notes: as for B1
